Measured values from patent EP4386000A1 (Nanjing Novoacine Bio-Technology Co., Ltd., dated 2024).
Substitutions are numbered along the chain they refer to.

T1: CD25 on CD4+CD25+ Treg cells isolated from human PBMCs (human, UniProt P01589 22-272)
T1 sequence (looked up): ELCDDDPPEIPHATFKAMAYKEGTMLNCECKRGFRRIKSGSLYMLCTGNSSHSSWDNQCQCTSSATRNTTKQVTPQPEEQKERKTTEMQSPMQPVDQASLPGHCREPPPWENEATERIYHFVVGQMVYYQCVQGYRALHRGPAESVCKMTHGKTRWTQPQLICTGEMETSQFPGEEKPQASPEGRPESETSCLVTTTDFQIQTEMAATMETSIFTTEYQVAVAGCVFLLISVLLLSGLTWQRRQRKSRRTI

T2: human CD25 (NP_000408.1) (Met 1-Cys 213) C-terminally fused with 6-histidine tag (human, UniProt P01589 22-213)
T2 construct: range 1-213; Expressed in CHO-K1 cells; also called human CD25-his
T2 sequence: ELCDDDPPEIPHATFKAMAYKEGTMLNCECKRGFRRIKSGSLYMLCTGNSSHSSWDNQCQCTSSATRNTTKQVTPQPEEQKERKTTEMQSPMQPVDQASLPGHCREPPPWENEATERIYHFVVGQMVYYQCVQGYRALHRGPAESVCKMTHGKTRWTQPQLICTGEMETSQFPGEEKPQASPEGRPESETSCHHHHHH

T3: Mouse CD25-his (UniProtKB-P01590, Met1-Lys213) (mouse, UniProt P01590 22-213)
T3 construct: range 1-213; Range begins at Met1 (includes the signal peptide); not shown: his tag
T3 sequence (looked up): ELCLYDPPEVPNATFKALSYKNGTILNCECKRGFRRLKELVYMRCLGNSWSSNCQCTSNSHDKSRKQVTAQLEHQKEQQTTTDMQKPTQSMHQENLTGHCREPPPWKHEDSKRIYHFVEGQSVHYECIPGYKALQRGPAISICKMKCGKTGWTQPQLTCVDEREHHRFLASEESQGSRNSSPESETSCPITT

T4: human CD25 on CHO-K1/hCD25 cells (human, UniProt P01589 22-272)
T4 construct: whole, on cells; The construct of the cell line is not described
T4 sequence (looked up): T1 sequence (looked up)

B1: chimeric antibody 2046-111H2L1 (antibody, human IgG1, kappa, V domains shown)
VH: DVQLQESGPGLVKPSQSLSLTCTVTGHSITSDYAWNWIRQFPGNKLEWMGYISYSGSTIYNPSLKSRISITRDTSKNQFFLQLNSVTTEDTATYYCARWLLQNYYAMDYWGQGTSVTVSS
VL: DVVMTQTPLSLPVSLGDQASISCRSSQSLVHSNGNTYLHWYLRKPGQSPKLLIYKVSNRFSGVPDRFSGSGSGTDFTLKISRVEAEDLGVYFCSQSTHVPLTFGAGTKLELKR
notes: Chimeric, human IgG1/kappa
B2: chimeric antibody 2046-2H1L1 (antibody, human IgG1, kappa, V domains shown)
VH: B1 VH with H27Y, Q40H, S53T, I59V, Q78H, N103I
VL: B1 VL with R43Q
notes: Chimeric (murine V, human IgG1/kappa); also called 2046-2ix
B3: chimeric antibody 2046-18H1L1 (antibody, human IgG1, kappa, V domains shown)
VH: B1 VH with H27Y, S57I, N103I
VL: B1 VL with R24S, R43H
notes: Chimeric, human IgG1/kappa; also called 2046-18ix
B4: chimeric antibody 2046-24H2L1 (antibody, human IgG1, kappa, V domains shown)
VH: B1 VH with H27Y, S55G, S57T
VL: B1 VL with R43Q, L51V, S96N
notes: Chimeric, human IgG1/kappa; also called 2046-24ix
B5: chimeric antibody 2046-61H1L2 (antibody, human IgG1, kappa)
heavy: not shown
light: DVVMTQTPLSLPVSLGDQASISCRSSQSLVHSNGNTYLHWNLQKPGQSPKLLIYKVSNRFSGVPDRFSGSGSGTDFTLKISRVEAEDLGVYFCSQSTHVPLTFSAGTKLELKRTVAAPSVFIFPPSDEQLKSGTASVVCLLNNFYPREAKVQWKVDNALQSGNSQESVTEQDSKDSTYSLSSTLTLSKADYEKHKVYACEVTHQGLSSPVTKSFNRGEC
notes: Chimeric, human IgG1/kappa; also called 2046-61ix
B6: chimeric antibody 2047-3H8L2 (antibody, human IgG1, kappa, V domains shown)
VH: QVQLKQSGAELVKPGASVKMSCKTSGYTFTDYVISWVKQRTGQGLEWIGEIYPGSGSTYYNEKFKGKATLTADISSNTAYMQLSSLTSEDSAVYFCASINFDYWGHGTTLTVSS
VL: DIVMTQSPATLSVTPGDRVSLSCRASQSISDYLHWYQQKSHESPRLLIKYASQSISGIPSRFSGSGSGSDFTLSINSVEPEDVGVYYCQNGHSFPYTFGGGTKLEIKR
notes: Chimeric, human IgG1/kappa; also called 2047-3ix
B7: chimeric antibody 2047-10H1L2 (antibody, human IgG1, kappa, V domains shown)
VH: QVQLQQSGPELVRPGVSVKISCKGSGYTFTDYAMHWVKQSHAKSLEWIGVISTYNGNTNYNQKFKGKATMTVDKSSSTAYMELARLTSEDSAIYYCARSYGNYPFDYWGQGTTLTVSS
VL: DIKMTQSPSSMYASLGERVTITCKASQDINSYLSWFQQKPGKSPKTLIYRANRLVDGVPSRFSGSGSGQDYSLTISSLEYEDMGIYYCLQYDEFPYTFGGGTKLEIKR
notes: Chimeric, human IgG1/kappa; also called 2047-10ix
B8: chimeric antibody 2046-36H2L1 (antibody, human IgG1, kappa, V domains shown)
VH: QIQLVQSGPELKKPGETVRISCKASGYTFTTAGMQWVQKMPGKGLKWIGWINTHSGVPKYAEDFKGRFAFSLETSASTAYLQISNLKNEDTATYFCASDYAFGYWGQGTLVTVSA
VL: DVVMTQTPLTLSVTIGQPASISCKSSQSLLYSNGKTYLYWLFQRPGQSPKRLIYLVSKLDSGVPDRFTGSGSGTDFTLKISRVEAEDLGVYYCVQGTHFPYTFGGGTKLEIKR
notes: Chimeric, human IgG1/kappa; also called 2046-36ix
B9: humanized antibody 2046-18H1L1-m2 (antibody, human IgG1, kappa, V domains shown)
VH: EVQLQESGPGLVKPSQTLSLTCTVSGYSITSDYAWNWIRQPPGKGLEWIGYISYSGITIYNPSLKSRVTISRDTSKNQFSLKLSSVTAADTAVYYCARWLLQIYYAMDYWGQGTLVTVSS
VL: EIVLTQSPGTLSLSPGERATLSCSSSQSLVHSNGNTYLHWYQQKPGQAPRLLIYKVSNRFSGIPDRFSGSGSGTDFTLTISRLEPEDFAVYYCSQSTHVPLTFGQGTKLEIKR

Molecular target: T1, CD25 on CD4+CD25+ Treg cells isolated …
Assay: cell-based or functional assay

Row | Binder | EC50, killing Tregs in vitro (ADCC reporter, jurkat/CD16a/NFAT-luc) | Relative activity (%) compared with 686, killing Tregs in vitro
1 | B1 | 89.8 µg/mL | 145%
2 | B2 | 22.2 µg/mL | 584%
3 | B3 | 31.7 µg/mL | 410%
4 | B4 | 26.5 µg/mL | 491%
5 | B5 | 34.1 µg/mL | 380%
6 | B6 | 857 µg/mL | 15.2%
7 | B7 | 41.4 µg/mL | 314%
8 | B8 | 52.4 µg/mL | 248%

Molecular target: T1, CD25 on CD4+CD25+ Treg cells isolated …
Assay: cell-based or functional assay
Remark: another data set of the same source

Row | Binder | EC50, killing Tregs in vitro (ADCC reporter, jurkat/CD16a/NFAT-luc)
9 | B9 | 82.6 µg/mL

Molecular target: T5, cyno CD25-his (NCBI-H6WS54, Met1-Arg213) (cyno)
T5 construct: range 1-213; Range begins at Met1 (includes the signal peptide)
Assay: ELISA, cyno CD25-his coated

Row | Binder | EC50
10 | B1 | 0.0447 µg/mL
11 | B2 | 0.0594 µg/mL
12 | B3 | 0.0483 µg/mL
13 | B4 | 0.0424 µg/mL
14 | B5 | 0.0601 µg/mL
15 | B6 | 0.189 µg/mL
16 | B7 | 2.6 µg/mL
17 | B8 | 0.0549 µg/mL

Molecular target: T2, human CD25 (NP_000408.1) (Met 1-Cys …)
Assay: ELISA, human CD25-his coated

Row | Binder | EC50 | Relative activity (%) compared with 686
18 | B1 | 0.0989 µg/mL | 105%
19 | B2 | 0.105 µg/mL | 99%
20 | B3 | 0.102 µg/mL | 102%
21 | B4 | 0.106 µg/mL | 98.2%
22 | B5 | 0.144 µg/mL | 72.2%
23 | B6 | 0.111 µg/mL | 93.6%
24 | B7 | 0.186 µg/mL | 56%
25 | B8 | 0.103 µg/mL | 101%

Molecular target: T3, Mouse CD25-his (UniProtKB-P01590, …)
Assay: ELISA, mouse CD25-his coated

Row | Binder | binding result
26 | B1 | no binding (tested: starting at 100 ng/mL)
27 | B2 | no binding (tested: starting at 100 ng/mL)
28 | B3 | no binding (tested: starting at 100 ng/mL)
29 | B4 | no binding (tested: starting at 100 ng/mL)
30 | B5 | no binding (tested: starting at 100 ng/mL)
31 | B6 | no binding (tested: starting at 100 ng/mL)
32 | B7 | no binding (tested: starting at 100 ng/mL)
33 | B8 | no binding (tested: starting at 100 ng/mL)

Molecular target: T4, human CD25 on CHO-K1/hCD25 cells
Assay: flow cytometry on CHO-K1/hCD25 cells

Row | Binder | EC50 | Relative activity (%) compared with 686
34 | B1 | 0.00109 µg/mL | 132%
35 | B2 | 0.00192 µg/mL | 63.8%
36 | B3 | 0.00171 µg/mL | 110%
37 | B4 | 0.00143 µg/mL | 131%
38 | B5 | 0.00114 µg/mL | 107%
39 | B6 | 0.00143 µg/mL | 205%
40 | B7 | 0.00246 µg/mL | 120%
41 | B8 | 0.00167 µg/mL | 73.3%

Molecular target: T2, human CD25 (NP_000408.1) (Met 1-Cys …)
Assay: SPR (BIAcore X100), human CD25-his captured by anti-histidine antibody, antibody as analyte, 1:1 model

Row | Binder | Kd | koff | kon
42 | B1 | 0.819 nM | 0.000431 s⁻¹ | 526000 M⁻¹ s⁻¹
43 | B2 | 4.27 nM | 0.00318 s⁻¹ | 745000 M⁻¹ s⁻¹
44 | B3 | 0.703 nM | 0.000326 s⁻¹ | 463000 M⁻¹ s⁻¹
45 | B4 | 7.63 nM | 0.00349 s⁻¹ | 458000 M⁻¹ s⁻¹
46 | B5 | 9.44 nM | 0.0121 s⁻¹ | 1.28e+06 M⁻¹ s⁻¹
47 | B6 | 0.308 nM | 7.26e-05 s⁻¹ | 236000 M⁻¹ s⁻¹
48 | B7 | 15.5 nM | 0.0122 s⁻¹ | 788000 M⁻¹ s⁻¹
49 | B8 | 2.45 nM | 0.00933 s⁻¹ | 3.8e+06 M⁻¹ s⁻¹

Molecular target: T2, human CD25 (NP_000408.1) (Met 1-Cys …)
Assay: as above
Remark: another data set of the same source

Row | Binder | Kd | koff | kon
50 | B9 | 2.45 nM | 0.00137 s⁻¹ | 560000 M⁻¹ s⁻¹
